The conditions of the data set: Homo sapiens; pH 2.7; Thermal; DSC; glycine 0.05 M; reversible: yes; whole UniProt chain shown.

B1: Lysozyme C wild type, P61626 (protein)
chain: MKALIVLGLVLLSVTVQGKVFERCELARTLKRLGMDGYRGISLANWMCLAKWESGYNTRATNYNAGDRSTDYGIFQINSRYWCNDGKTPGAVNACHLSCSALLQDNIADAVACAKRVVRDPQGIRAWVAWRNRCQNRDVRQYVQGCGV
Consider B1, for which the Tm worked out at 64.9 °C, the “heat capacity change of unfolding” value came to 1.58 kcal/mol/K, the “unfolding enthalpy (calorimetric)” value worked out at 114 kcal/mol and the “unfolding enthalpy (van 't Hoff)” value stood at 120 kcal/mol.

What is called Tm is the temperature at which the thermal transition is half complete.

(Values after FireProtDB (doi:10.1093/oxfordjournals.jbchem.a021544).)
